Biological target: GABARAP (Homo sapiens, UniProt O95166)
Assay: MST, SPR

Chain of GABARAP (O95166 1-116): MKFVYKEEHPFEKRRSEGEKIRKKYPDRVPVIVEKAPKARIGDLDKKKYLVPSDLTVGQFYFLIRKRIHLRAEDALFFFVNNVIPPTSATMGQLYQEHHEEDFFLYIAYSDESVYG

## DATYTWEHLAWP [K1 peptide]
  Kd: ~3000 nM

From PMC9100651 (2022)
